Experiment [1] deals with T1, A-domain of CD11b (UniProt P11215 139-337).
T1 construct: domain: A-domain; Used as the ligand in BLI (Octet); also called CD11b A-domain; CD11bA domain
In words: BLI (Octet), A-domain of CD11b as ligand. As to the method:
Production, purification, and evaluation: Expi293 cells (Thermo Fisher) were used to produce recombinant antibodies. Cells were grown on orbital shaker (125 rpm) in Expi293 Expression Medium (Thermo Fisher) at 37° C. in 5% CO2. Expi293 cells were transiently transfected with 1:1 heavy chain and light chain plasmids, using manufacturer's protocol. Culture supernatant was harvested after one week, and IgG was purified using Protein G agarose beads (Thermo Scientific). We routinely obtained 1-3 mg of purified IgG per 100 ml of cell culture. The protein sizes of the heavy and light chains and purity of the IgG were confirmed on SDSPAGE. Affinity of the humanized mAb107 vs. mouse mAb107 was measured using the A-domain of CD11b as ligand by Bio-layer interferometry (BLI) using the Octet Assay system.
Background: In BLI a coated tip is dipped into the sample, and binding shifts an interference pattern.

Experiment [2] has as its target T1, A-domain of CD11b. In words: assay not given; presumably BLI on the CD11b A-domain as in Example 1; lower end of the printed range 5-9 nM.

T1 sequence (P11215 139-337 limits assumed): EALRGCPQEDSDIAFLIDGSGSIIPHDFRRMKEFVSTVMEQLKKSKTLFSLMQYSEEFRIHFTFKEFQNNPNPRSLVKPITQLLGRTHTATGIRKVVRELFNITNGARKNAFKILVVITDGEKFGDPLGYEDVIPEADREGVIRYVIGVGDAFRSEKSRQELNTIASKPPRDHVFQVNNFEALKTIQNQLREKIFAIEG

B1: humanized N55D-substituted mAb107 (humanized IgG4κ mAb107) (antibody, V domains shown)
VH: QVQLVQSGAEVKKPGASVKVSCKPSGFNIKDIYMQWVRQAPGQRLEWIGRIDPADDKTKYDPKFQGRATITADTSASTAYLELSSLRSEDTAVYYCASEGHYGYDGYAMDYWGQGTTVTVSS
VL: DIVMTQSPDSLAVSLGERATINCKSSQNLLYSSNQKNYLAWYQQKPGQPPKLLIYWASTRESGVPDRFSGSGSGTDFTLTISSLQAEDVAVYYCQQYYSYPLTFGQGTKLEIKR
notes: The VH was joined to a human IgG4 constant region and the VL to a human kappa constant region; also called humAb107; humanized mAb107
As usually defined, the Kd is the free concentration of one partner at which half of the binding sites on the other are occupied at equilibrium, for simple one-to-one binding. In the case of B1, the Kd with A-domain of CD11b [1] fell in the range of 5 to 9 nM.

B2: Humanized mutagenized mAb107 IgG4k heavy chain V5 (antibody, V domains shown)
VH: QVQLVQSGAEVKKPGASVKVSCKPSGFNIKDIYMQWVRQAPGQRLEWIGRIDPADDKTKYDPKFQGRATITADTSASTAYLELSSLRSEDTAVYYCASEGHYGYDGYAMDYWGQGTTVTVSS
VL: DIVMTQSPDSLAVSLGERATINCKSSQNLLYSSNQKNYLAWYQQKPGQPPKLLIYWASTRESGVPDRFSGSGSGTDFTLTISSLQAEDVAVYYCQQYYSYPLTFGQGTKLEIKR
notes: The residue limits were counted on the printed translation; The heavy chain carries the N-to-D substitution in CDR2 and S228P in the IgG4 hinge; also called Humanized mutagenized anti-CD11b; humanized IgG4κ mAb107 containing Pro 228
B2 showed a Kd in the experiment with A-domain of CD11b [2] of 5 to 9 nM.
